What was measured:
[1] = target: T1, GST-IFNAR1 (wild type): bacterially expressed cytoplasmic domain of IFNAR1 fused with GST (UniProt P17181)
T1 sequence: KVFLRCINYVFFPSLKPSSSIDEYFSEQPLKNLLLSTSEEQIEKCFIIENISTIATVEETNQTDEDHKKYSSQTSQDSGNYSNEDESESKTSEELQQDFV

[2] = target: T2, recombinant PKD2 used as substrate of Tyk2 and Src (UniProt Q9BZL6)
T2 sequence: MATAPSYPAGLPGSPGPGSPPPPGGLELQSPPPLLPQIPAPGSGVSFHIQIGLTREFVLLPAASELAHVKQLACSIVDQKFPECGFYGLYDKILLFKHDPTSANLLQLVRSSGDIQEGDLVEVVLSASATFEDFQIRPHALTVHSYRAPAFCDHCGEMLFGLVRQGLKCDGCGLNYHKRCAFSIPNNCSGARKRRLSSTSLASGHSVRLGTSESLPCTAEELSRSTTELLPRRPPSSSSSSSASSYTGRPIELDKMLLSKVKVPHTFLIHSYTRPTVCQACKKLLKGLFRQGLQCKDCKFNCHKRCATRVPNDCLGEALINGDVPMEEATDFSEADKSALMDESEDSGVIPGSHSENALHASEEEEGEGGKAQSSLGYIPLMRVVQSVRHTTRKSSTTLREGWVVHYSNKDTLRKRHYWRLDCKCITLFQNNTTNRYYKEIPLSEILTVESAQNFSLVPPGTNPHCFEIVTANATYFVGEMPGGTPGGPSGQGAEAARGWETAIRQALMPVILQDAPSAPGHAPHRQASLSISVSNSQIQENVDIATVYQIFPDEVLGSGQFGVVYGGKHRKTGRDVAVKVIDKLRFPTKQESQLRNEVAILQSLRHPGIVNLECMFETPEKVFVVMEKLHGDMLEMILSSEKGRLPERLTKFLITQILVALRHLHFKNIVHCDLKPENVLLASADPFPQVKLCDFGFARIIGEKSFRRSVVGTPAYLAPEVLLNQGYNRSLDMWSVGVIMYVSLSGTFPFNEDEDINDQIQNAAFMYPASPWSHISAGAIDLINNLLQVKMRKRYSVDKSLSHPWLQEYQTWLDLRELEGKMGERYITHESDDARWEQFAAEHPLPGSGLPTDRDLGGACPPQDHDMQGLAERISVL

[3] = tested on: purified recombinant Nrf2-Neh2 domain S40A
[4] = tested on: purified recombinant Nrf2-Neh2 domain T80A
[5] = tested on: purified recombinant Nrf2-Neh2 domain (wild type)

Substance: GST-tagged PKD2 kinase-dead K580N mutant
- in vitro phosphorylation of GST-IFNAR1 on Ser535 (immunoblot with anti-pS535) [1]: Ser535 phosphorylation on GST-IFNAR1 incubated with ATP and GST-PKD2 was not evident when a catalytically deficient (kinase-dead, KD) K580N mutant was used in the reaction

Substance: HA-tagged Leishmania major CK1 (L-CK1) immunopurified from 293T cells
- immunokinase assay: phosphorylation of GST-IFNAR1 on Ser535 [1]: immunopurified human CK18, CK1E, and protozoan parasite L-CK1 were active against IFNAR1S535 in the immunokinase assay in vitro

Substance: HA-tagged Tyk2 immunopurified from cells
- in vitro tyrosine phosphorylation of PKD2 (immunoblot with anti-phospho-Tyr antibody) [2]: A robust increase in Tyr phosphorylation of PKD2 was seen when HA-Tyk2 was purified from IFN-a-treated cells

Substance: Myc-tagged human CK1δ immunopurified from 293T cells
- immunokinase assay: phosphorylation of GST-IFNAR1 on Ser535 [1]: immunopurified human CK18, CK1E, and protozoan parasite L-CK1 were active against IFNAR1S535 in the immunokinase assay in vitro

Substance: bacterially produced recombinant GST-CK1α
- in vitro phosphorylation of GST-IFNAR1 on Ser535 and Ser532 (immunoblot with phospho-specific antibodies) [1]: Incubation of recombinant CKla with wild type GST-IFNAR1 substrate and ATP in vitro resulted in phosphorylation of Ser535 but not of Ser532

Substance: recombinant Src (purchased from Cell Signaling)
- in vitro tyrosine phosphorylation of PKD2 (immunoblot with anti-phospho-Tyr antibody) [2]: tyrosine phosphorylation of PKD2 was easily detected when recombinant Sre protein was used as positive control

Substance: recombinant bacterially produced constitutively active ΔN-PERK
- in vitro kinase assay, autoradiography [3]: Purified recombinant PERK phosphorylated wild type Nrf2-Neh2 and a serine 40 to alanine mutant; however, mutation of threonine 80 to alanine abrogated phosphorylation
- in vitro kinase assay [1]: activated PERK was not capable of phosphorylating IFNAR1 in vitro
- in vitro kinase assay, autoradiography [4]: mutation of threonine 80 to alanine abrogated phosphorylation
- in vitro kinase assay, autoradiography [5]: Purified recombinant PERK phosphorylated wild type Nrf2-Neh2 and a serine 40 to alanine mutant; however, mutation of threonine 80 to alanine abrogated phosphorylation

Reference: patent US20120014911
